Experimental data reported in US6780986.

What was measured:
[1] = biological target: T1, GST-Z1 (GST fused to the Z1 domain of RIP60, zinc fingers 1-5)
T1 chain: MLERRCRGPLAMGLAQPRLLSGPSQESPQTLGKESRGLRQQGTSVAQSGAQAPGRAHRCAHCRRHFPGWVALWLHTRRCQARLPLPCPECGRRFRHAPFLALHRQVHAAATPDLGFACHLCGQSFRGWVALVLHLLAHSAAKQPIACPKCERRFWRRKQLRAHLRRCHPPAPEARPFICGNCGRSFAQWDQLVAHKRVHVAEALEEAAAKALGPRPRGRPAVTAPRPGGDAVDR

[2] = biological target: T2, GST-Z3 (GST fused to the Z3 domain of RIP60, zinc fingers 9-15)
T2 chain: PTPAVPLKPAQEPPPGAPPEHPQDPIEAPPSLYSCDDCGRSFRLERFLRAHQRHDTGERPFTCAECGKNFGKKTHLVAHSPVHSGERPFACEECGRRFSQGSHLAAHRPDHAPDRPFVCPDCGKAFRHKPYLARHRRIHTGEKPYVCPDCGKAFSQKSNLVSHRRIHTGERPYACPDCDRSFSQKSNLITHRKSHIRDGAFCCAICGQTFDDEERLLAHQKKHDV

[3] = biological target: T3, GST-Z2 (GST fused to the Z2 domain of RIP60, zinc fingers 6-8 plus 37 amino acids of the proline rich region)
T3 chain: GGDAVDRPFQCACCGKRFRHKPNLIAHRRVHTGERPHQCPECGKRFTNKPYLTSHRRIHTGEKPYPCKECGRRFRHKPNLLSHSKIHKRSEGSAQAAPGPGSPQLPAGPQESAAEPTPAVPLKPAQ

GST-Z2-P123 = biological target: T4, GST-Z2-P123
T4 chain: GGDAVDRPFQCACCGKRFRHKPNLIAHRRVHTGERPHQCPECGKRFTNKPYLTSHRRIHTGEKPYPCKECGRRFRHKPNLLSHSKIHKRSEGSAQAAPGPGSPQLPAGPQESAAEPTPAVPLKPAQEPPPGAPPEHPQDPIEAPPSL

B1: casein kinase II (CKII; New England Biolabs) (protein)
chain 1: MSGPVPSRARVYTDVNTHRPREYWDYESHVVEWGNQDDYQLVRKLGRGKYSEVFEAINITNNEKVVVKILKPVKKKKIKREIKILENLRGGPNIITLADIVKDPVSRTPALVFEHVNNTDFKQLYQTLTDYDIRFYMYEILKALDYCHSMGIMHRDVKPHNVMIDHEHRKLRLIDWGLAEFYHPGQEYNVRVASRYFKGPELLVDYQMYDYSLDMWSLGCMLASMIFRKEPFFHGHDNYDQLVRIAKVLGTEDLYDYIDKYNIELDPRFNDILGRHSRKRWERFVHSENQHLVSPEALDFLDKLLRYDHQSRLTAREAMEHPYFYTVVKDQARMGSSSMPGGSTPVSSANMMSGISSVPTPSPLGPLAGSPVIAAANPLGMPVPAAAGAQQ
chain 2: not shown
**Q.** For B1, which “phosphorylation in vitro (32P-ATP, SDS gel, autoradiography)” value [1] is on record?
**A.** Its value is “neither GST-Z1 nor GST-Z3 were phosphorylated to any great degree”.

**Q.** What about the “phosphorylation in vitro (32P-ATP, SDS gel, autoradiography)” value [2] of the same protein?
**A.** Its value is “neither GST-Z1 nor GST-Z3 were phosphorylated to any great degree”.

**Q.** And the “phosphorylation in vitro (32P-ATP, SDS gel, autoradiography)” value [3]?
**A.** The value was “Only the GST-Z2 polypeptide, which contains the casein kinase II phosphorylation domain was phosphorylated”.

**Q.** And the “phosphorylation in vitro with and without DNA (32P-ATP, SDS gel, autoradiography)” value [3]?
**A.** Its value is “GST-Z2 polypeptide was phosphorylated by casein kinase II in the absence of DNA. However, the extent of phosphorylation increased in the presence of the double stranded DRS oligo, the linearized plasmid pCH127 and the supercoiled pCH127”.

**Q.** What about the “phosphorylation in vitro (32P-ATP, SDS gel, autoradiography)” value (GST-Z2-P123) of the same protein?
**A.** The value was “Both GST-Z2 and GST-Z2P123 were phosphorylated”.
